Assay results: patent US11135246B2, “Peptides and combination of peptides for use in immunotherapy against leukemias and other cancers” (Immatics Biotechnologies GmbH, priority 2017, dated 2021)

These substances were tested against HLA-B*07:02 (Homo sapiens, UniProt P01889) (assay: MHC binding assay, UV-ligand exchange with β2m ELISA, HLA-B*07:02). Details: binding to HLA-B*07:02, UV-ligand exchange.
Excerpt: (§1) Candidate peptides for T cell based therapies according to the present invention were further tested for their MHC binding capacity (affinity). The individual peptide-MHC complexes were produced by UV-ligand exchange, where a UV-sensitive peptide is cleaved upon UV-irradiation, and exchanged with the peptide of interest as analyzed. Only peptide candidates that can effectively bind and stabilize the peptide-receptive MHC molecules prevent dissociation of the MHC complexes. To determine the yield of the exchange reaction, an ELISA was performed based on the detection of the light chain (β2m) of stabilized MHC complexes. The assay was performed as generally described in Rodenko et al. (Rodenko et al., 2006).
(§2) 96 well MAXISorp plates (NUNC) were coated over night with 2 ug/ml streptavidin in PBS at room temperature, washed 4× and blocked for 1 h at 37° C. in 2% BSA containing blocking buffer. Refolded HLA-A*02:01/MLA-001 monomers served as standards, covering the range of 15-500 ng/ml. Peptide-MHC monomers of the UV-exchange reaction were diluted 100-fold in blocking buffer. Samples were incubated for 1 h at 37° C., washed four times, incubated with 2 ug/ml HRP conjugated anti-β2m for 1 h at 37° C., washed again and detected with TMB solution that is stopped with […]. Absorption was measured at 450 nm. Candidate peptides that show a high exchange yield (preferably higher than 50%, most preferred higher than 75%) are generally preferred for a generation and production of antibodies or fragments thereof, and/or T cell receptors or fragments thereof, as they show sufficient avidity to the MHC molecules and prevent dissociation of the MHC complexes.

Substance | Peptide exchange (MHC class I binding score, peptide exchange yield)
89 (FPETVNNLL; listed as Homo sapiens) [compound 89] | “++” (>20% = ++)
91 (KPKAAKPKAA; listed as Homo sapiens) [compound 91] | “++” (>20% = ++)
230 (KPMKSVLVV; listed as Homo sapiens) [compound 230] | “+++” (>50 = +++)
242 (SPFSFHHVL; listed as Homo sapiens) [compound 242] | “++” (>20% = ++)
100 (YPYQERVFL; listed as Homo sapiens) [compound 100] | “++” (>20% = ++)
245 (SPLSHHSQL; listed as Homo sapiens) [compound 245] | “++” (>20% = ++)
80 (KPLFKVSTF; listed as Homo sapiens) [compound 80] | “++” (>20% = ++)
96 (KPKKAPKSPA; listed as Homo sapiens) [compound 96] | “+++” (>50 = +++)
86 (IPASHPVL; listed as Homo sapiens) [compound 86] | “++” (>20% = ++)
93 (KARKSAGAA; listed as Homo sapiens) [compound 93] | “+++” (>50 = +++)
229 (SPLGSLARSSL; listed as Homo sapiens) [compound 229] | “++++” (>75% = ++++)
98 (YPIALTRAEM; listed as Homo sapiens) [compound 98] | “+++” (>50 = +++)
254 (SPRNLQPQRAAL; listed as Homo sapiens) [compound 254] | “+++” (>50 = +++)
253 (RPFADLLGTAF; listed as Homo sapiens) [compound 253] | “+++” (>50 = +++)
250 (VPNLQTVSV; listed as Homo sapiens) [compound 250] | “++” (>20% = ++)
77 (RPNGNSLFTSA; listed as Homo sapiens) [compound 77] | “+++” (>50 = +++)
87 (FPAPILRAV; listed as Homo sapiens) [compound 87] | “+++” (>50 = +++)
92 (KAKKPAGAA; listed as Homo sapiens) [compound 92] | “++” (>20% = ++)
79 (SPVPSHWMVA; listed as Homo sapiens) [compound 79] | “+++” (>50 = +++)
232 (APRPAGSYL; listed as Homo sapiens) [compound 232] | “+++” (>50 = +++)
226 (YLNRHLHTW; listed as Homo sapiens) [compound 226] | “++” (>20% = ++)
227 (APINKAGSFL; listed as Homo sapiens) [compound 227] | “++++” (>75% = ++++)
97 (LPFGKIPIL; listed as Homo sapiens) [compound 97] | “++” (>20% = ++)
251 (QPRLFTMDL; listed as Homo sapiens) [compound 251] | “+++” (>50 = +++)

Each substance was assayed against HLA-B*44:02 (Homo sapiens, UniProt P01889, A223V/A65T/A93T/A95T/D201E/D98Y/E176V/E187L/E204Q/E69K/G107R/H137Y/K202T/L105A/L119I/N104T/N87E/Q56L/Q94N/R106L/R155S/R180D/S101N/S121R/S35A/S48T/T118I/V36M/W191S/Y140D/Y91S) (assay: MHC binding assay, UV-ligand exchange with β2m ELISA, HLA-B*44:02). Details: binding to HLA-B*44:02, UV-ligand exchange.
Excerpt: as §1, §2

Substance | Peptide exchange (MHC class I binding score, peptide exchange yield)
128 (GENDRLNHTY; listed as Homo sapiens) [compound 128] | “++” (>20% = ++)
151 (EVDASIFKAW; listed as Homo sapiens) [compound 151] | “++” (>20% = ++)
178 (REYEHYWTEL; listed as Homo sapiens) [compound 178] | “+++” (>50 = +++)
182 (AQNLSIIQY; listed as Homo sapiens) [compound 182] | “++” (>20% = ++)
183 (GESQDSTTAL; listed as Homo sapiens) [compound 183] | “++” (>20% = ++)
267 (KEKFPINGW; listed as Homo sapiens) [compound 267] | “+++” (>50 = +++)
257 (KEFFFVKVF; listed as Homo sapiens) [compound 257] | “+++” (>50 = +++)
158 (GENEDNRIGL; listed as Homo sapiens) [compound 158] | “++” (>20% = ++)
173 (KEYDFGTQL; listed as Homo sapiens) [compound 173] | “++” (>20% = ++)
138 (SQAPAARAF; listed as Homo sapiens) [compound 138] | “++” (>20% = ++)
268 (NEDKGTKAW; listed as Homo sapiens) [compound 268] | “++” (>20% = ++)
153 (KEFEQVPGHL; listed as Homo sapiens) [compound 153] | “++” (>20% = ++)
179 (AEIKQTEEKY; listed as Homo sapiens) [compound 179] | “++” (>20% = ++)
168 (QEIQSLLTNW; listed as Homo sapiens) [compound 168] | “+++” (>50 = +++)
262 (QENQAETHAW; listed as Homo sapiens) [compound 262] | “+++” (>50 = +++)
172 (VEDGLFHEF; listed as Homo sapiens) [compound 172] | “+++” (>50 = +++)

Substance | Peptide exchange (MHC class I binding score, peptide exchange yield)
160 (EEETILHFF; listed as Homo sapiens) [compound 160] | “++” (>20% = ++)
274 (GEAVTDHPDRLW; listed as Homo sapiens) [compound 274] | “+++” (>50 = +++)
140 (EYDLKWEF; listed as Homo sapiens) [compound 140] | “++” (>20% = ++)
185 (SEGDNVESW; listed as Homo sapiens) [compound 185] | “+++” (>50 = +++)
148 (REYNEYENI; listed as Homo sapiens) [compound 148] | “++” (>20% = ++)
264 (SEDHSGSYW; listed as Homo sapiens) [compound 264] | “+++” (>50 = +++)
134 (SEYADTHYF; listed as Homo sapiens) [compound 134] | “+++” (>50 = +++)
263 (REAGFQVKAY; listed as Homo sapiens) [compound 263] | “+++” (>50 = +++)
187 (SDAQRPSSF; listed as Homo sapiens) [compound 187] | “+” (>10% = +)
131 (EEFETIERF; listed as Homo sapiens) [compound 131] | “++” (>20% = ++)
161 (EEGDTLLHLF; listed as Homo sapiens) [compound 161] | “+++” (>50 = +++)
144 (TEGKRYFTW; listed as Homo sapiens) [compound 144] | “+++” (>50 = +++)
146 (SESKTVVTY; listed as Homo sapiens) [compound 146] | “+++” (>50 = +++)
147 (KEVPRSYEL; listed as Homo sapiens) [compound 147] | “++” (>20% = ++)
181 (GEIKEPLEI; listed as Homo sapiens) [compound 181] | “++” (>20% = ++)
